Tests used:
[1] = system: JNK/SAPK; assay: JNK/SAPK activity in Swiss 3T3 clones with inducible MEKKCOOH; format: cell-based; details: 17 hours IPTG induction
Experimental: JNK/SAPK: Activity was measured using GST (glutathione S-transferase)—c-Jun (1-79) BOUND to glutathione-Sepharose-4B (Hibi et al. supra). Cells expressing MEKKCOOH or control cells were lysed in 0.5% Nonidet P40 (NP40), 20 mM Tris-HCl, pH 7.6, 0.25 NaCl, 3 mM EDTA, 3 mM EGTA, 1 mM dithiothreitol, 1 mM phenylmethylsulfonyl fluoride, 2 mM sodium vanadate, 20 μg/ml aprotinin and 5 μg/ml leupeptin. Lysates were centrifuged at 15,000×g for 10 min to remove nuclei and supernatants (25 μg protein) mixed with 10 μl of GST-c-JUN(1-79)-Sepharose (3-5 μg of GST-c-Jun(1-79)). The mixture was rotated at 4° C. for 1 hr, washed 2× in lysis buffer and 1× in kinase buffer (20 mM Hepes, pH 7.5, 10 mM MgCl2, 20 mM β-glycerophosphate, 10 mM p-nitrophenyl phosphate, 1 mM dithiothreitol, 50 μM sodium vanadate). Beads were suspended in 40 μl of kinase buffer with 10 μCi Of [γ^32P] ATP and incubated at 30° C. for 20 min. Samples were boiled in Laemmli buffer and phosphorylated proteins resolved on SDS/10% polyacrylamide gels. To verify the selectivity of the JNK/SAPK assay cell lysates were fractionated by Mono Q ion exchange chromatography and each fraction assayed as described above. Fractions were also immunoblotted with a rabbit antisera recognizing JNK/SAPK. […]

[2] = system: Swiss 3T3 cells; assay: UV-induced apoptosis in Swiss 3T3 clones with IPTG-inducible MEKKCOOH; format: cell-based; details: two hours after ultraviolet irradiation
Experimental: FIG. 16. Induction of MEKKCOOH expression by IPTG in Swiss 3T3 cells increases the number of condensed cells and stimulates c-Myc transactivation. In panel A, cells were incubated in the presence or absence of 5 mM IPTG for forty eight hours. Cells were stained with acrodine orange and condensed cells quantitated per 1000 cells counted per coverslip. In panel B Swiss 3T3 cells with inducible MEKKCOOH were incubated in the presence or absence of IPTG. The indicated cells were then exposed to UV-C irradiation and then fixed and stained with propidium iodide. The percentage of apoptotic cells was enumerated.
Because stable expression of MEKKCOOH appeared to inhibit clonal expansion of Swiss 3T3 cells under G418 drug selection, clones were isolated having inducible expression of the kinase. The Lac Switch expression system (Stratagene) was used to control the expression of MEKKCOOH. Several independent clones were isolated and their properties analyzed in the presence or absence of IPTG-induced expression of MEKKCOOH. The parental LacR+ clone expressing only the Lac repressor was used as the control. […] This is probably due to a basal level of MEKKCOOH expression in uninduced cells. […] This maybe related to selection of cells during the cloning procedure that adapted to a low, constitutive level of MEKKCOOH expression. […]

[3] = system: GST-Ras^V12; assay: Binding of COS cell-expressed MEKK1 proteins to GST-Ras^V12 agarose; details: COS cell lysates, immunoblot
From the text: COS cells were transiently transfected by the DEAE-dextran protocol as generally described in Example 3. Cos cells were transfected with: (1) p-MEKK1 containing a nucleic acid molecule encoding MEKK1 as described in Lange-Carter et al. (Science 260:315-319, […]); (2) p-MEKKNH2 containing a nucleic acid molecule that encodes a 858 base pair Pvull(682)-Ncol(1541) restriction digest fragment of the amino terminus of MEKK1 ligated into pCMV5; (3) p-MEKKCOOH containing a nucleic acid molecule that encodes a 1435 base pair Ncol(1541)-Sspl(2976) restriction digest fragment that includes the entire kinase domain of MEKK1 ligated into pCMV5; (4) pCMV5 without insert; or (5) p-C4Raf containing a nucleic acid molecule that encodes the amino terminus of Raf-1 ligated into pCMV5. COS cells expressing the various MEKK1 proteins were […] COS cells expressing the various MEKK1 proteins were lysed in EB (1% Triton X-100, 10 mM Tris HCl [pH 7.4], 5 mM EDTA, 50 mM NaCl, 50 mM NaF, 0.1% bovine serum albumin, 0.2 U/ml aprotinin, 1 mM phenylmethylsulfonyl fluoride and 2 mM Na3 VO4). The lysates were separated into two equal parts for separate binding reactions. Half of the lysate was incubated with GST agarose (1.5 μg) while half of the lysate was incubated with GST-Ras^V12 agarose (1.5 μg) (purchased from UBI) for 1 hr at 4° C. The GST-Ras^V12 was preincubated at 30° C. for 30 min with 1 mM nucleotide (GDP or GTPγS). The nucleotide binding reaction was stopped by adding MgCl2 to a final concentration of 20 mM. After the 1 hr binding reaction the agarose beads were pelleted at 2000 rpm for 2 min and washed 3 times with PBS+1.0% Triton X-100. The washed agarose beads were boiled in Laemmli SDS sample buffer and the proteins resolved by SDS polyacrylamide gel electrophoresis. Proteins were transferred onto nitrocellulose for immunoblotting with antibodies specific for an NH2 terminal fusion protein (described in Example 1) or a COOH terminal peptide (described in Example 1).

[4] = system: p38/Hog1; assay: p38/Hog1 activity in Swiss 3T3 clones with inducible MEKKCOOH; format: cell-based; details: 17 hours IPTG induction

B1: MEKKCOOH: a truncated activated form of MEKK1 including the entire kinase domain (protein)
chain: MAMSASQDALPIVPQLQVENGEDIIIIQQDTPETLPGHTKAKQPYREDAEWLKGQQIGLGAFSSCYQAQDVGTGTLMAVKQVTYVRNTSSEQEEVVEALREEIRMMGHLNHPNIIRMLGATCEKSNYNLFIEWMAGGSVAHLLSKYGAFKESVVINYTEQLLRGLSYLHENQIIHRDVKGANLLIDSTGQRLRIADFGAAARLASKGTGAGEFQGQLLGTIAFMAPEVLRGQQYGRSCDVWSVGCAIIEMACAKPPWNAEKHSNHLALIFKIASATTAPSIPSHLSPGLRDVAVRCLELQPQDRPPSRELLKHPVFRTTW
For B1, the JNK/SAPK activity [1] was “stimulated JNK/SAPK activity”, the “cells morphologically highly condensed, appearing apoptotic” value [2] was “greater than 30%” and the “binding to GST-Ras^V12 (in words)” value [3] was “bound to GST-Ras^V12 in a GTP dependent manner”. For the same molecule, the p38/Hog1 activity [4] was “did not activate either ERK or p38/Hog1 activity”.

Reference: US20080201790A1, “Method and product for regulating cell responsiveness to external signals” (priority 1993, published 2008)
